{"source": "the nanobody polyreactivity screen of Harvey et al. (2022)"}
{"experiment": "yeast display, Sf9 membrane polyspecificity reagent, FACS + sequencing; frameworks hold sequencing errors", "procedure,_shortened": "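Galactose induction of a Saccharomyces cerevisiae BJ5465 synthetic nanobody display library ran 36–48 hours. The cells were then stained for 1 hour at 4 °C with 10% biotinylated, detergent-solubilized Sf9 membrane reagent, pulled down on streptavidin microbeads and FACS-sorted into low and high (top ~1%) gates on expression and reagent-binding fluorescence. Labels for polyreactivity follow the gate of origin.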"}
{"sequence": "QVQLVESGGGLVQAGGSLRLSCAASGSTFNRNAMGWYRQAPGKERELVASISSGDNTKYADSVKGRFTISRDNAKNTVYLKMNSLKPEDTAVYYCNTVNKSLYAGLRKRWGGYYYWGQGTQVTVSS", "polyreactivity (PSR sort gate)": "high polyreactivity"}
{"sequence": "QVQLVESGGGLVQAGGSLRLSCAASGSTFNRYAMGWYRQAPGKERELVAAISGSGSSTYYADSVKGRFTISRDNAKNTVYLQMNSLKPEDTAVYYCAAVRYEYDYWGQGTQVTVSS", "polyreactivity (PSR sort gate)": "high polyreactivity"}
{"sequence": "QVQLVESGGGLVQAGGSLRLSCAASGSTFNRYAMGWYRQAPGKERELVAAISSRGGRTYYADSVKGRFTISRDNAKNTVYLQMNSLKPEDTAVYYCAADSSIDYDWGQGTQVTVSS", "polyreactivity (PSR sort gate)": "high polyreactivity"}
{"sequence": "QVQLVESGGGLVQAGGSLRLSCAASGSTFNRYAMGWYRQAPGKERELVAGISYSGTRTYYADSVKGRVTISRDNAKNTVYLQMNSLKPEDTAVYYCAAVYPGPYYARRRLFYWGQGTQVTVSS", "polyreactivity (PSR sort gate)": "high polyreactivity"}
{"sequence": "QVQLVESGGGLVQAGGSLRLSCAASGSTFNSYAMGWYRQAPGKERELVAAISWSGGSTYYADSVKGRFTISRDNAKNTVYLQMNSLKPEDPAVYYCNADYWWEYAYGVDYWGQGTQVTVSS", "polyreactivity (PSR sort gate)": "low polyreactivity"}
{"sequence": "QVQLVESGGGLVQAGGSLRLSCAASGSTFNTYVMGWYRQAPGKERELVAAISSSGGTTYYADSVKGRFTISRDNAKNTVYLQMNSLKPEDTAVYYCNAVPKYGSRLYRYGYWGQGTQVTVSS", "polyreactivity (PSR sort gate)": "high polyreactivity"}
{"sequence": "QVQLVESGGGLVQAGGSLRLSCAASGSTFNWNAMGWYRQAPGKERELVAAISRSGGRTSYADSVKGRFTISRDNAKNTVYLQMNSLKPEDTAVYYCAAEKVGTRPSRDYDYWGQGTQVTVSS", "polyreactivity (PSR sort gate)": "high polyreactivity"}
{"sequence": "QVQLVESGGGLVQAGGSLRLSCAASGSTFNWNAMGWYRQAPGTERELVAAISKSGGTTYYADSVKGRFTISRDNAKNTVYFQMNSLKPEDTAVYYCAAVRRYHSYPDGGYWGQGTQVTVSS", "polyreactivity (PSR sort gate)": "high polyreactivity"}
{"sequence": "QVQLVESGGGLVQAGGSLRLSCAASGSTFNWYAMGWYRQAPGKERELVASIRISGGSTYYADSVKGRFTISRDNAKNTVYLQMNSLKPEDTAVYYCNAKLFIRWFTYDYLGQGTQVTVSS", "polyreactivity (PSR sort gate)": "low polyreactivity"}
{"sequence": "QVQLVESGGGLVQAGGSLRLSCAASGSTFNYNAMGWYRQAPGKERELVAAISSGASTNYADSVKGRFTISRDNAKNTVYLQMNSLKPEDTAVYYCAARSRTPGWYSTISRKMYWGQGTQVTVSS", "polyreactivity (PSR sort gate)": "high polyreactivity"}
{"sequence": "QVQLVESGGGLVQAGGSLRLSCAASGSTFPANAMGWYRPAPGKERELVAAISSVGSTNYADSVKGRFTISRDNAKNTVYLQMNSLKPEDTAVYYCATQPTWYTVGDLDYWGQGTQVTVSS", "polyreactivity (PSR sort gate)": "low polyreactivity"}
{"sequence": "QVQLVESGGGLVQAGGSLRLSCAASGSTFPAYAMGWYRQAPGKERELVAGISSGGRTYYADSVKGRFTISRDNAKNTVYLQMNSLKPEDTWVYYCAAFRFYWQRPERYYYWGQGTQVTVSS", "polyreactivity (PSR sort gate)": "high polyreactivity"}
{"sequence": "QVQLVESGGGLVQAGGSLRLSCAASGSTFPDNAMGWYRQAPGKERELVAAISWSGGSTNYADSVKGRFTISRDNAKNTVYLQMNSLKPEDTAVYYCNADDASHYYFRDEYWGLGTQVTVSS", "polyreactivity (PSR sort gate)": "low polyreactivity"}
{"sequence": "QVQLVESGGGLVQAGGSLRLSCAASGSTFPDNAMVWYRQAPGKEREFVATITWRGGRTNYADSVKGRFTISRDNAMNTVYLQMNSLKPEDTAFYYCDKVVRYARSNEYDTWGQGTQLTVSS", "polyreactivity (PSR sort gate)": "low polyreactivity"}
{"sequence": "QVQLVESGGGLVQAGGSLRLSCAASGSTFPEYAMGWYRKAPGKERELVAAISKSGGRTYYADSVKGRFTISRDNAKNTVYLQMNSLNPEDTAVYYCARDSYPHGRARFDYWGQGTQVTVSS", "polyreactivity (PSR sort gate)": "high polyreactivity"}
{"sequence": "QVQLVESGGGLVQAGGSLRLSCAASGSTFPEYAMGWYRQAPGKERELVADISSGGDTSYADSVKGRFTISRDNAKNTVYLQMNSLNPEDTAVYYCAAGTAGTTGSPKFSGYGYDYWGQGTQVTVSS", "polyreactivity (PSR sort gate)": "low polyreactivity"}
{"sequence": "QVQLVESGGGLVQAGGSLRLSCAASGSTFPFNAMGWYRQAPGKERELVAGIRSRGGSTYYADSVKGRFTISRDNAKNTVYLQMNSLIPEDTAVSSCAKVYKDRDDLFYYWGQGTQVTVSS", "polyreactivity (PSR sort gate)": "low polyreactivity"}
{"sequence": "QVQLVESGGGLVQAGGSLRLSCAASGSTFPFYAMGWYRQAPGKERELVAAITSGGSTYADSVKGRFTISRDNAKNTVYLQMNSLKPEDTAVYYCAASWPRWWRFGYWGQGTQVTVSS", "polyreactivity (PSR sort gate)": "low polyreactivity"}
{"sequence": "QVQLVESGGGLVQAGGSLRLSCAASGSTFPFYDMGWYRQAPGKERELVAAIRSGGSTYADSVKGRFTISRDNAKNTVYLQMNSLKPEDTAVYYCAKRCPSNRYSRYRVKYDYWGQGSQVTVSS", "polyreactivity (PSR sort gate)": "low polyreactivity"}
{"sequence": "QVQLVESGGGLVQAGGSLRLSCAASGSTFPFYDMGWYRQAPGKERELVTAIRSGGSTYADSVKGRFTISRDNAKNTVYLQMNSLKPVDTAVYYCAKRCPSIRYSRYRVKYDYWGQGTQVTVSS", "polyreactivity (PSR sort gate)": "low polyreactivity"}
{"sequence": "QVQLVESGGGLVQAGGSLRLSCAASGSTFPGYAMGWYRQAPGKERELVAAINGRGGSTYYADSVKGRFTISRDNAKNTVYLQMNSLKPEDSAVYYCAAFVGSRSAKYIKYWGQGTQVTVSS", "polyreactivity (PSR sort gate)": "high polyreactivity"}
{"sequence": "QVQLVESGGGLVQAGGSLRLSCAASGSTFPGYAMGWYRQAPGKERELVAAISASGGSTYYADSVKGRFTISRDNAKNTVYLQMNSLKPEDTAVYYCAKVLSRGASAHDYWGQGTQVTVSS", "polyreactivity (PSR sort gate)": "low polyreactivity"}
{"sequence": "QVQLVESGGGLVQAGGSLRLSCAASGSTFPGYAMGWYRQAPGKERELVAAISTSGGRTYYADSVKGRFTISRDNAKNTVYLQMNSLKPEDTAVYYCAADASTWYTEEYWGQGTQVTVSS", "polyreactivity (PSR sort gate)": "low polyreactivity"}
{"sequence": "QVQLVESGGGLVQAGGSLRLSCAASGSTFPIYAMGWYRQAPGKERELVAAITHRDGSTYYADSVKGRFTISRDNAKNTVYLQMNSLKPEDTAVYYCAAETYVVWFTFDYWGQGTQVTVSS", "polyreactivity (PSR sort gate)": "high polyreactivity"}
{"sequence": "QVQLVESGGGLVQAGGSLRLSCAASGSTFPLYAMGWYRQAPGKERELVAAITGGGGRTYYADSVKGRFTISRDNAKNTVYLQMNSLKPEETAVYYCAASKQRYYRWWTTPGYDYWGQGTQVTVSS", "polyreactivity (PSR sort gate)": "low polyreactivity"}
{"sequence": "QVQLVESGGGLVQAGGSLRLSCAASGSTFPPNAMGWYRPAPGKERELVAVISNGGSNTRYADSVKGRFTISRDNAKNTVYLQMNSLKPEDTAVYYCAADYEYSGYGYWGQGTQVTVSS", "polyreactivity (PSR sort gate)": "high polyreactivity"}
{"sequence": "QVQLVESGGGLVQAGGSLRLSCAASGSTFPPNAMGWYRQAPGKESELVAAISFSSGRTYYADSVKGRFTISRDNAKNTVYLQMNSLKPEDTAVYYCAADHGYWGQGTQVTVSS", "polyreactivity (PSR sort gate)": "low polyreactivity"}
{"sequence": "QVQLVESGGGLVQAGGSLRLSCAASGSTFPQNAMGWTRQAPGKERELVAVISRSGGNPYYADSVKGRFTISRDIAKNSVYLQMNSLKPEDTAVYYCATRVKTTYDYWGQGTQVTVSS", "polyreactivity (PSR sort gate)": "low polyreactivity"}
{"sequence": "QVQLVESGGGLVQAGGSLRLSCAASGSTFPQYAMGWYRQAPGKERELVAAISRSGGSTYYADSVKGRFTISRDNAKNTVYLQMNSLKPEDTAVYYCNVKSGFWFYPTMDYWGQGTQVTVSS", "polyreactivity (PSR sort gate)": "high polyreactivity"}
{"sequence": "QVQLVESGGGLVQAGGSLRLSCAASGSTFPRNAMGWSRQAPGKERELVAAISFRGSTTYYADSVKGRFTISRDNAKNTVYLQMNSLKPEDTAVYYCAADGGRQARTYSRYYWGQGTQVTVSS", "polyreactivity (PSR sort gate)": "high polyreactivity"}
{"sequence": "QVQLVESGGGLVQAGGSLRLSCAASGSTFPRNAMGWYRQAPGKERELVAAISSGGSTYYADSVKWRFTISRDNAKNTVYLQMNSLKPEDTAVYYCAARLYWPIIVVDLYGYDYWGQGTQVTVSS", "polyreactivity (PSR sort gate)": "low polyreactivity"}
{"sequence": "QVQLVESGGGLVQAGGSLRLSCAASGSTFPRNAMGWYRQAPGKERELVATISTSGGSTYYADSVKGRFTISRDNAKNTVYLQMNSLKPEDTPVYYCAAVFWFRSLSGYIYDYWGQGTQVSVSS", "polyreactivity (PSR sort gate)": "low polyreactivity"}
